Data as given in paper PMC4137571 (Biomaterials, 2014).
Several values for one entry are separate records, joined by “and”; a condition that tells them apart may be missing. Identical values can stand only once.

Biological target: the molecule itself
Test: SEC

B1: HEV P^+ (modified protruding (P) protein of hepatitis E virus with C-terminal cysteine-containing peptide) (domain or fragment)
chain: PTPSPAPSRPFSVLRANDVLWLSLTAAEYDQTTYGSSTNPMYVSDTVTLVNVATGAQAVARSLDWSKVTLDGRPLTTIQQYSKTFYVLPLRGKLSFWEAGTTKAGYPYNYNTTASDQILIENAAGHRVAISTYTTSLGAGPTSISAVGVLAPHSALAVLEDTIDYPCDCRGDCFC
- stoichiometry N: 2 and 4
